Ends that are not written are not given here.
T1: human RXFP1 receptor (human, UniProt Q9HBX9 1-757)
T1 sequence: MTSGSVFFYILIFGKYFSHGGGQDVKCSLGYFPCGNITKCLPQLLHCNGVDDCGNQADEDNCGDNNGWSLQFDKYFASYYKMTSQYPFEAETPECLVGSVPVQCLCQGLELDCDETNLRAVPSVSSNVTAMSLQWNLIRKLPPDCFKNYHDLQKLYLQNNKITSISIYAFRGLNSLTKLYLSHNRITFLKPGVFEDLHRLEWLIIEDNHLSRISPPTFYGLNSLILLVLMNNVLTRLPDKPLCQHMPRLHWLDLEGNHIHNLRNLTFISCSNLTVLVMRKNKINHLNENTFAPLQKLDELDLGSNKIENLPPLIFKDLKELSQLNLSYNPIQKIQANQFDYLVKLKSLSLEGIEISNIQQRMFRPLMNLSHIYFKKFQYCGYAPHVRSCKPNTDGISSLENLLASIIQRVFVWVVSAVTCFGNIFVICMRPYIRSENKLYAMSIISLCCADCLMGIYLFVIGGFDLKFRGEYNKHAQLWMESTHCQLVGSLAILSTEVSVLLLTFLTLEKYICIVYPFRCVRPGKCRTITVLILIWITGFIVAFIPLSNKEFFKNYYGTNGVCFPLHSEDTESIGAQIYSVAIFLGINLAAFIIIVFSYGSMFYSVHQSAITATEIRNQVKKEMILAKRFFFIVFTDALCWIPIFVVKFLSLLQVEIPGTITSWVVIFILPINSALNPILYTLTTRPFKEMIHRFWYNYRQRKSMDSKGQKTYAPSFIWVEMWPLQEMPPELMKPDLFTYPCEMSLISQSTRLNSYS


Assays:
pig serum albumin = biological target: T2, pig serum albumin (pig, UniProt P08835 25-607); test: SPR (Biacore 8K), albumin immobilized on CM5 chip, 25 C, 1:1 kinetic fit
T2 construct: Bought protein, immobilized on a CM5 chip by amine coupling; also called Pig SA
Experimental: (§1) The immobilization of the serum albumin to a Series S Sensor Chip CM5 surface is performed according to the manufacturer's instructions (Amine Coupling Kit BR-1000-50). Briefly, carboxyl groups on the sensor chip surfaces (flow cell 1 and 2) are activated by injecting 70 μL of a mixture containing 75 mg/mL EDC and 11.5 mg/mL NHS at 10 μL/min. Human, cynomolgus monkey, mouse, rat, pig, dog, cow and rabbit serum albumin are diluted in 10 mM sodium acetate pH 4.0 (BR-1003-49) at […] and then injected over the activated chip surfaces (flow cell 2, channel 1 to 8) at 10 μL/min for 180 sec (human, mouse, rat, pig and cow serum albumin are obtained from Sigma Aldrich (St. Louis, MO); cynomolgus monkey serum albumin is obtained from Hölzel Diagnostika (Cologne, Germany); dog serum albumin is obtained from Molecular Innovations (Novi, MI); and rabbit serum albumin is obtained from Fitzgerald Industries Intl. (Acton, MA). The various serum albumins are covalently immobilized through free amines onto a carboxymethyl dextran-coated sensor chip CM5 targeting a surface density of about 100 (62-145) RU. Excess reactive groups on the surfaces (flow cell 1 and 2) are deactivated by injecting 70 μL of 1 M ETA HCl—NaOH pH 8.5.
(§2) 150 μl of sample is individually injecting sequentially across the immobilized serum albumins on the chip's surface and dissociating for 600 sec at 50 μL/min flow rate at 25° C. The surface is regenerated by injecting 10 mM glycine-HCl pH 1.5 (BR-1003-54) at 50 μL/min for 100 sec. The resulting sensorgrams are analyzed using Biacore 8K Insight Evaluation Software (version 2.0.15.12933) 1:1 binding kinetics model fitting to calculate the binding kinetic parameter association rate (ka), dissociation rate (kd), and equilibrium dissociation constant (KD).

human serum albumin = biological target: T3, human serum albumin (human, UniProt P02768 25-609); test: as above
T3 construct: Bought protein, immobilized on a CM5 chip by amine coupling; also called Human SA
Experimental: as §1, §2

[1] = biological target: T4, cynomolgus monkey serum albumin (cynomolgus monkey, UniProt A2V9Z4 25-608); test: as above
T4 construct: Bought protein, immobilized on a CM5 chip by amine coupling; also called Cyno SA
Experimental: as §1, §2

mouse serum albumin = biological target: T5, mouse serum albumin (mouse, UniProt P07724 25-608); test: as above
T5 construct: Bought protein, immobilized on a CM5 chip by amine coupling; also called Mouse SA
Experimental: as §1, §2

cow serum albumin [2] = biological target: T6, cow serum albumin (cow, UniProt P02769 25-607); test: as above
T6 construct: Bought protein, immobilized on a CM5 chip by amine coupling; also called Cow SA
Experimental: as §1, §2

dog serum albumin = biological target: T7, dog serum albumin (dog, UniProt P49822 25-608); test: as above
T7 construct: Bought protein, immobilized on a CM5 chip by amine coupling; also called Dog SA
Experimental: as §1, §2

rat serum albumin = biological target: T8, rat serum albumin (rat, UniProt P02770 25-608); test: as above
T8 construct: Bought protein, immobilized on a CM5 chip by amine coupling; also called Rat SA
Experimental: as §1, §2

rabbit serum albumin = biological target: T9, rabbit serum albumin (rabbit, UniProt P49065 25-608); test: SPR (Biacore 8K), albumin immobilized on CM5 chip, 25 C
T9 construct: Bought protein, immobilized on a CM5 chip by amine coupling; also called Rabbit SA
Experimental: as §1, §2

cow serum albumin [3] = biological target: T6, cow serum albumin; test: SPR (Biacore 8K), albumin immobilized on CM5 chip, 25 C, steady state
Experimental: as §1
150 μl of sample is individually injecting sequentially across the immobilized serum albumins on the chip's surface and dissociating for 600 sec at 50 μL/min flow rate at 25° C. The surface is regenerated by injecting 10 mM glycine-HCl pH 1.5 (BR-1003-54) at 50 μL/min for 100 sec. The resulting sensorgrams are analyzed using Biacore 8K Insight Evaluation Software ([…]).

human RXFP2 receptor = human RXFP2 receptor (human, UniProt Q8WXD0 1-754); test: cell-based or functional assay
human RXFP1 receptor = biological target: T1, human RXFP1 receptor; test: cell-based or functional assay

Kd (pig serum albumin) [nM] | koff (pig serum albumin) [s⁻¹] | kon (pig serum albumin) [M⁻¹ s⁻¹] | Kd (human serum albumin) [nM] | koff (human serum albumin) [s⁻¹] | kon (human serum albumin) [M⁻¹ s⁻¹] | Kd [1] [nM] | koff [1] [s⁻¹] | kon [1] [M⁻¹ s⁻¹] | Kd (mouse serum albumin) [nM] | koff (mouse serum albumin) [s⁻¹] | kon (mouse serum albumin) [M⁻¹ s⁻¹] | Kd (dog serum albumin) [nM] | koff (dog serum albumin) [s⁻¹] | kon (dog serum albumin) [M⁻¹ s⁻¹] | Kd (rat serum albumin) [nM] | koff (rat serum albumin) [s⁻¹] | kon (rat serum albumin) [M⁻¹ s⁻¹] | hRXFP2 EC50 nM GeoMean (cAMP CRE luciferase reporter assay, CHO cells expressing human RXFP2) (human RXFP2 receptor) [nM] | Binder | binding result (rabbit serum albumin) | other results
14 | 0.012 | 870000 | 0.19 | 0.00018 | 950000 | 0.86 | 0.00094 | 1.1e+06 | 9.5 | 0.011 | 1.2e+06 | 3.8 | 0.0036 | 950000 | 8.2 | 0.0075 | 910000 | 97 | RLN Analog 9 (other, Single-chain fusion: RLN2 B chain (desB1) - L2 - RLN2 A chain - (G4Q)5 L1 - VHH (C-terminal)) SWMEEVIKLCGRELVRAQIAICGMSTWSGGGSGGSGGGQLYSALANKCCHVGCTKRSLARFCGGGGQGGGGQGGGGQGGGGQGGGGQEVQLLESGGGLVQPGGSLRLSCAASGRYIDETAVAWFRQAPGKGREFVAGIGGGVDITYYADSVKGRFTISRDNSKNTLYLQMNSLRPEDTAVYYCAARPGRPLITSKVADLYPYWGQGTLVTVSSPP | no binding (tested: 1000 nM (highest concentration tested)) | Kd (cow serum albumin [3]): 84 nM; hRXFP1 EC50 nM GeoMean (cAMP CRE luciferase reporter assay, CHO cells expressing human RXFP1) (human RXFP1 receptor): 5.2 nM
– | – | – | – | – | – | – | – | – | – | – | – | – | – | – | – | – | – | 1.7 | native, human RLN2 (ligand, disulfide (positions not given here); not fully specified (bridges); ends not checked; also: two interchain and one intra-A-chain disulfide, pairing not given here) chain 1: QLYSALANKCCHVGCTKRSLARFC chain 2: DSWMEEVIKLCGRELVRAQIAICGMSTWS | – | hRXFP1 EC50 nM GeoMean (cAMP CRE luciferase reporter assay, CHO cells expressing human RXFP1) (human RXFP1 receptor): 0.15 nM

Further lines, the binder ahead of its results:

Binder | Kd (pig serum albumin) [nM] | koff (pig serum albumin) [s⁻¹] | kon (pig serum albumin) [M⁻¹ s⁻¹] | Kd (human serum albumin) [nM] | koff (human serum albumin) [s⁻¹] | kon (human serum albumin) [M⁻¹ s⁻¹] | Kd [1] [nM] | koff [1] [s⁻¹] | kon [1] [M⁻¹ s⁻¹] | Kd (mouse serum albumin) [nM] | koff (mouse serum albumin) [s⁻¹] | kon (mouse serum albumin) [M⁻¹ s⁻¹] | Kd (dog serum albumin) [nM] | koff (dog serum albumin) [s⁻¹] | kon (dog serum albumin) [M⁻¹ s⁻¹] | Kd (rat serum albumin) [nM] | koff (rat serum albumin) [s⁻¹] | kon (rat serum albumin) [M⁻¹ s⁻¹] | hRXFP2 EC50 nM GeoMean (cAMP CRE luciferase reporter assay, CHO cells expressing human RXFP2) (human RXFP2 receptor) [nM] | binding result (rabbit serum albumin) | other results
RLN Analog 2 (other, Single-chain fusion: VHH - (PGPA)8 L1 - RLN2 A chain - L2 - RLN2 B chain (desB1)) EVQLLESGGGLVQPGGSLRLSCAASGRYIDETAVAWFRQAPGKEREFVAGIGGGVDITYYADSVKGRFTISRDNSKNTLYLQMNSLRPEDTAVYYCAARPGRPLITSKVADLYPYWGQGTLVTVSSPGPAPGPAPGPAPGPAPGPAPGPAPGPAPGPAQLYSALANKCCHVGCTKRSLARFCGGGSGGSGGGSWMEEVIKLCGRELVRAQIAICGMSTWS | 8 | 0.0056 | 690000 | 0.1 | 9.5e-05 | 920000 | 0.45 | 0.00052 | 1.2e+06 | 3.8 | 0.0042 | 1.1e+06 | 1.4 | 0.0015 | 1e+06 | 3 | 0.0029 | 980000 | – | no binding (tested: 1000 nM (highest concentration tested)) | Kd (cow serum albumin [2]): 50 nM; koff (cow serum albumin [2]): 0.049 s⁻¹; kon (cow serum albumin [2]): 980000 M⁻¹ s⁻¹
RLN Analog 5 (other, Single-chain fusion: RLN2 B chain (desB1) - L2 - RLN2 A chain - (G4Q)5 L1 - VHH (C-terminal)) SWMEEVIKLCGRELVRAQIAICGMSTWSGGGSGGSGGGQLYSALANKCCHVGCTKRSLARFCGGGGQGGGGQGGGGQGGGGQGGGGQEVQLLESGGGLVQPGGSLRLSCAASGRYIDETAVAWFRQAPGKEREFVAGIGGGVDITYYADSVKGRFTISRDNSKNTLYLQMNSLRPEDTAVYYCAARPGRPLITSKVADLYPYWGQGTLVTVSSPP | 23 | 0.013 | 580000 | 0.45 | 0.00026 | 580000 | 1.8 | 0.0015 | 820000 | 14 | 0.0083 | 590000 | 4.7 | 0.0034 | 710000 | 10 | 0.0072 | 700000 | 98 | no binding (tested: 1000 nM (highest concentration tested)) | Kd (cow serum albumin [3]): 120 nM; hRXFP1 EC50 nM GeoMean (cAMP CRE luciferase reporter assay, CHO cells expressing human RXFP1) (human RXFP1 receptor): 8.1 nM
RLN Analog 1 (other) EVQLLESGGGLVQPGGSLRLSCAASGRYIDETAVAWFRQAPGKEREFVAGIGGGVDITYYADSVKGRFTISRDNSKNTLYLQMNSLRPEDTAVYYCAARPGRPLITSKVADLYPYWGQGTLVTVSSGGGGQGGGGQGGGGQGGGGQGGGGQQLYSALANKCCHVGCTKRSLARFCGGGSGGSGGGSWMEEVIKLCGRELVRAQIAICGMSTWS | 7.1 | 0.0055 | 780000 | 0.11 | 0.00011 | 980000 | 0.5 | 0.00053 | 1.1e+06 | 3.3 | 0.0042 | 1.3e+06 | 1.2 | 0.0015 | 1.3e+06 | 2.1 | 0.0026 | 1.2e+06 | – | no binding (tested: 1000 nM (highest concentration tested)) | Kd (cow serum albumin [2]): 37 nM; koff (cow serum albumin [2]): 0.05 s⁻¹; kon (cow serum albumin [2]): 1.4e+06 M⁻¹ s⁻¹
RLN Analog 6 (other, Single-chain fusion: RLN2 B chain (desB1) - L2 - RLN2 A chain - PGPQ-repeat L1 - VHH (C-terminal)) SWMEEVIKLCGRELVRAQIAICGMSTWSGGGSGGSGGGQLYSALANKCCHVGCTKRSLARFCPGPQPGPQPGPQPGPQPGPQPGPQPGPQPGPQEVQLLESGGGLVQPGGSLRLSCAASGRYIDETAVAWFRQAPGKEREFVAGIGGGVDITYYADSVKGRFTISRDNSKNTLYLQMNSLRPEDTAVYYCAARPGRPLITSKVADLYPYWGQGTLVTVSSPP | 24 | 0.0099 | 410000 | 0.51 | 0.00024 | 470000 | 2.3 | 0.001 | 430000 | 12 | 0.0076 | 630000 | 4.1 | 0.002 | 480000 | 9.7 | 0.0048 | 490000 | 39 | no binding (tested: 1000 nM (highest concentration tested)) | Kd (cow serum albumin [3]): 130 nM; hRXFP1 EC50 nM GeoMean (cAMP CRE luciferase reporter assay, CHO cells expressing human RXFP1) (human RXFP1 receptor): 15 nM

Source: patent publication US20260125446A1 (Eli Lilly, published 2026)
